Measured values reported in patent publication US12209142B2, “SARS-CoV-2 epitope-targeted peptide immunostimulants” (Institute for Systems Biology, priority 2020, dated 2025).
“Also recorded” adds a separate entry of the source. Bridges are numbered along the chain shown (N, C = ends). Where no end group is shown, it is not given here. [ ]: non-standard residue; d: D form. Lys(N3) = [N-]=[N+]=NCCCC[C@H](N)C(=O)O; Pra = C#CC[C@H](N)C(=O)O

Columns and labels:
[1] = Isocratic point of PCCs (C18 prep-scale column elution); assay type: physicochemical
Text: The efficacy of AR-PCCs in vivo will not only depend on target binding, but also pharmacokinetic (PK) properties, of which clearance pathway is an important parameter. […] Modifications include single- and double-residue substitutions, residue removal, and the addition of non-ionic PEG and charged poly-arginine tags (Ri, where i represents the number of arginine). Results of this optimization are shown in FIG. 4B, which plots IP versus the affinity of the compound to MrkA, relative to cy(LLFFF) (SEQ ID NO:5).
PCC compounds were purified on a Waters Autopurification system, which isolated compounds based on MS peaks corresponding to protonated [M+1H]^+ and [M+2H]^2+, and/or sodium adducts [M+Na]^+ and [M+2Na]^2+. The isocratic points of PCCs were determined based on the elution of the compound from a C18 prep-scale column. Synthetic epitopes were either purified on the Waters Autopurification System, or by semi-preparative HPLC and then using matrix-assisted laser desorption/ionization mass spectroscopy to identify fractions with the desired m/z ratio. The resulting peptides were lyophilized, the yield determined by mass difference or UV-visible absorbance, and resuspended at a concentration of up to 10 mM peptide in DMSO. Peptides were stored at −80° C. before thawing for each use.

[2] = molecular target: T1, full-length recombinant MrkA protein (Klebsiella pneumoniae, UniProt P12267); assay: Sandwich ELISA of PCC binding to full-length MrkA; conditions: for binding / affinity to full-length MrkA protein (ELISA signal): compared with cy(LLFFF); for affinities to MrkA (likely): ELISA, full-length recombinant MrkA
T1 construct: purchased MyBiosource MBS1248970
T1 sequence (P12267 23-202): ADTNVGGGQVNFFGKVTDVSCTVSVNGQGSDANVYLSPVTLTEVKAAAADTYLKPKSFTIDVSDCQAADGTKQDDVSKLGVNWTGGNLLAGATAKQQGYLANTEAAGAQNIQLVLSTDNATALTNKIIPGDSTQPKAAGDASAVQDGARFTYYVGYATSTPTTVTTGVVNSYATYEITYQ
Experimental: The screen yielded 26 hits (Table 2) that were sequenced, scaled up, and tested for binding to full-length recombinant MrkA in solution by single-point sandwich Enzyme-linked immunoassays (ELISAs) (FIG. 8). HPraGly is present before X1 in each peptide and Az4 follows X5 in each peptide.
An alanine scan was performed to establish which residues of cy(LLFFF) (SEQ ID NO:5) contribute most to MrkA binding. In this assay, a sandwich ELISA is used to quantify the affinity of several cy(LLFFF) (SEQ ID NO:5) analogues, in which one residue is substituted with an alanine, towards full-length MrkA protein. The ELISA results in FIG. 4 show lower signal for every alanine-substituted cy(LLFFF) (SEQ ID NO:5) analogue compared to unmodified cy(LLFFF) (SEQ ID NO:5), establishing that the native compound has the highest affinity. […] Thus, these two C-terminal phenylalanine residues (FIG. 3A, arrows in inset) play critical roles in MrkA binding, and are targets for modifications to improve binding. Another important detail of these alanine scan results is a strong dependence of MrkA binding on the residue position, independent of residue type. For example, cy(LLAFF) (SEQ ID NO:9) and cy(LLFFA) (SEQ ID NO:11) have very different binding affinities, despite having the same phenylalanine-to-alanine substitution.
In vitro ELISA assays. ELISA assays for MrkA-binding and epitope selectivity were performed on clear NeutrAvidin Coated High Capacity Plates (ThermoFisher, 15507). The buffer used for all washes and to dissolve all compounds was TBST+0.1% BSA (TBS+0.05% Tween 20+0.1% BSA, pH 7.3) and, unless otherwise stated, steps were conducted at room temperature. Each wash involved a brief 20 s agitation, and all conjugation, blocking, and incubation steps were performed with gentle agitation over the entire stated time period. The general procedure for an ELISA assay was: wash 3×200 μL/well, conjugate with 2 μM of biotinylated compound for 2 h at room temperature (100 μL/well), wash 3×200 μL/well, blocked overnight in 5 wt % milk at 4° C., wash […] with wash buffer, incubate with titrated compound (e.g., MrkA or epitope) for 1 h, […], incubate with primary antibody […] for 1 h (100 μL/well), wash 3×200 μL/well, incubate with 1:2,000 anti-rabbit secondary antibody-horseradish peroxidase conjugate (Cell signaling Technologies, 7074S) for 1 h, 3×200 μL/well, develop with the Microwell Peroxidase Substrate System (2-C) (SeraCare, 5120-0047) using 100 μL/well for 1-40 minutes, and quench using 1 M H2SO4 (aq.) at 100 μL/well. For MrkA binding assays, biotinylated PCCs were conjugated to the well surface, recombinant MrkA with an N-terminal 6×His-SUMO-tag (MyBiosource, MBS1248970) was titrated at the desired concentration, and the primary antibody was His-tag antibody, pAb, Rabbit (Genscript, A00174) at a 1:5,000 dilution. For epitope selectivity assays, biotinylated SynEps were conjugated, DNP-conjugated AR-PCCs were titrated at a desired concentration, and the primary antibody was anti-DNP antibody produced in Rabbit (Sigma-Aldrich, D9656) at a 1:8,000 dilution. […] For binding tests in the context of mouse sera, the “titrated compound” described in the steps above was dispersed in a solution containing the desired concentration of mouse serum.

[3] = tested on: K. pneumoniae cells (strain BAA 1705); assay: Gentamicin protection assay: phagocytosis and opsonophagocytic killing (OPK) by macrophages; assay type: cell-based, Klebsiella pneumoniae; conditions: AR-PCC 5 μM, 1 h
Experimental: FIGS. 7A and 7B show a gentamicin protection assay that evaluates EPI-driven phagocytosis and opsonophagocytic killing (OPK) of K. pneumoniae cells by murine bone-marrow-derived macrophages. FIG. 7A is a flow diagram depicting the assay used to evaluate EPI-driven opsonophagocytic killing (OPK) of K. pneumoniae cells. Briefly, K. pneumoniae cells (strain BAA 1705) opsonized by EPIs (AR-PCCs) and anti-DNP antibodies were incubated with macrophages for 1 or 24 h. Macrophages were lysed, and the lysate was plated to obtain bacterial colonies that were subsequently counted. FIG. 7B is a plot of colony counts for various samples subjected to the OPK assay. […] All EPIs (AR-PCCs) were used at a 5 μM concentration, measurements were conducted in triplicate, and error bars reflect standard deviations. cy(LLFFA) is SEQ ID NO:11.
It also tested whether DNP-conjugated EPIs could promote the opsonophagocytic killing (OPK) of K. pneumoniae by macrophages. This was tested by using an OPK assay. Briefly, K. pneumoniae cells were treated with EPI and then anti-DNP antibody before being exposed to macrophages for either 6 or 24 hours. During this incubation period, macrophages that recognize K. pneumoniae cells will phagocytose them, and phagocytosed bacteria will remain viable for up to 6 hours, but within 24 hours are rendered inviable by OPK. Thus, macrophages were isolated after 6 and 24 hours of incubation with K. pneumoniae, lysed them, and plated and grew the lysate, which yielded bacterial colonies that reflect the phagocytosis (at 6 hrs) or OPK (at 24 hrs) of bacteria.
Given that cy(LLFFF)-DNP (SEQ ID NO:5) recruits antibodies to K. pneumoniae surfaces, it was expected that K. pneumoniae opsonized in this manner would be more susceptible to phagocytosis by macrophages. AR-PCC-driven phagocytosis and OPK were quantified by a gentamicin protection assay, as depicted in FIG. 7A. For this assay, K. pneumoniae cells (strain BAA 1705) were treated with cy(LLFFF)-DNP (SEQ ID NO:5), opsonized by anti-DNP antibodies, and then incubated with murine bone-marrow-derived macrophages (BMDMs). BMDMs were subsequently exposed to a solution containing gentamicin, to which K. pneumoniae strain BAA 1705 is susceptible, to kill any extracellular bacteria. Phagocytosed bacteria remain viable inside BMDMs for at least 1 h, yet are rendered inviable after 24 h by OPK (FIG. 13). Macrophages harvested at 1 h and 24 h were lysed and plated to generate bacterial colonies, which were enumerated to quantify phagocytosis and OPK.
Opsonophagocytic killing (OPK) assays. Klebsiella pneumoniae BAA1705 was treated with DNP-PCCs followed by incubation with anti-DNP antibody, as described above in the “Cell-Based ELISAs” section. These opsonized bacteria were then used to infect BMDMs at a multiplicity of infection of 50 for 0.5 h at 37° C. Bacteria were then washed by using RPMI 1640 Media and BMDMs were left in cell culture medium containing gentamicin (100 μg/ml). After 1 h and 24 h BMDMs were washed to remove gentamicin and intracellular bacteria were harvested by lysing BMDMs in RPMI media containing 0.2% Triton X 100. Bacterial CFUs were enumerated by plating onto LB agar. Bacterial counts at 1 h indicated the degree of opsonization while those at 24 h served as a measure of microbicidal activity of macrophages. For these measurements, anti-MrkA antibody and K. pneumoniae antiserum were used at dilutions of 5 μg/mL each.

[4] = tested on: MrkA-expressing K. pneumoniae cells; assay: Whole-cell ELISA of biotinylated PCC binding
[5] = strain BAA 1705, PCC 5 μM or lower

Ref. compound (LLFFF; not fully specified (bridges); printed as cy(LLFFF); also: cyclised (cy), ring-closing ends (Pra and azidolysine) not shown in this chain)
Isocratic point (%) ([1]; N-terminal tag Bio-Peg10-peg10-): 74.53% | Isocratic point (%) ([1]; N-terminal tag Bio-peg5-): 78.85% | Isocratic point (%) ([1]; N-terminal tag Bio-peg10-): 75.88% | Relative affinity (ratio of ELISA signal versus cy(LLFFF)) ([2]; ELISA 1, [MrkA] for ELISA N/A): 1.00 | Relative affinity (ratio of ELISA signal versus cy(LLFFF)) ([2]; [MrkA] for ELISA 25 nM (ELISA 2, 5, 6)): 1.00 | Relative affinity (ratio of ELISA signal versus cy(LLFFF)) ([2]; [MrkA] for ELISA 50 nM (ELISA 3)): 1.00 | Relative affinity (ratio of ELISA signal versus cy(LLFFF)) ([2]; [MrkA] for ELISA 100 nM (ELISA 4)): 1.00

cy(ALFFF): alanine-substituted cy(LLFFF) analogue ([Lys(N3)]ALFFFX; triazole 1-7; not fully specified (residue 7); printed as cy(ALFFF))
binding / affinity to full-length MrkA protein (ELISA signal) [2]: Modestly lower binding

cy(GVHRL): additional MrkA ligand with lower affinity (XGVHRL[Lys(N3)]; triazole 1-7; not fully specified (residue 1); printed as cy(GVHRL))
affinities to MrkA (likely) [2]: ~1 µM | binding / affinity to full-length MrkA protein (ELISA signal) [2]: lower affinities to MrkA

cy(LAFFF): alanine-substituted cy(LLFFF) analogue ([Lys(N3)]LAFFFX; triazole 1-7; not fully specified (residue 7); printed as cy(LAFFF))
binding / affinity to full-length MrkA protein (ELISA signal) [2]: Modestly lower binding

cy(LLAFF): alanine-substituted cy(LLFFF) analogue ([Lys(N3)]LLAFFX; triazole 1-7; not fully specified (residue 7); printed as cy(LLAFF))
binding / affinity to full-length MrkA protein (ELISA signal) [2]: Modestly lower binding

cy(LLFFA)-DNP: DNP-conjugated control cy(LLFFA) ([Lys(N3)]LLFFAX; triazole 1-7; not fully specified (residue 7); printed as cy(LLFFA); also: DNP label)
phagocytosis / OPK activity at 1 h, AR-PCC plus anti-DNP [3]: None of these treatments elicited phagocytosis above basal levels | phagocytosis at 1 h, AR-PCC only (no anti-DNP) [3]: None of these treatments elicited phagocytosis above basal levels

cy(LLFFA): control compound differing from cy(LLFFF) by a single phenyl moiety ([Lys(N3)]LLFFA[Pra]; triazole 1-7)
whole-cell ELISA signal, MrkA-knockout KPPR1 ([4]; MrkA/B/C knockout KPPR1): ELISA intensities comparable to baseline | whole-cell ELISA signal at high PCC concentration, LB or G-CAA ([4]; strain BAA 1705, 50 μM PCC): strong and comparable ELISA signals | whole-cell ELISA 450 nm absorbance, cells cultured in G-CAA (high MrkA) [4, 5]: near-baseline absorbances | whole-cell ELISA 450 nm absorbance, cells cultured in LB (low MrkA) [4, 5]: near-baseline absorbances | whole-cell ELISA signal, wild type KPPR1 ([4]; wild type KPPR1 (ATCC 43816), G-CAA media, 5 μM down to 5 nM): much lower intensities; also recorded: Much lower binding

cy(LLFFF)+R6-DNP: optimized compound cy(LLFFF)+R6 tagged with DNP ([Lys(N3)]LLFFF[Pra]RRRRRR; bridge 1-7; not fully specified (bridges); also: tagged with DNP, position not given here)
phagocytosis / OPK activity at 1 h, AR-PCC plus anti-DNP [3]: comparable to that of cy(LLFFF)-DNP | phagocytosis at 1 h, AR-PCC only (no anti-DNP) [3]: None of these treatments elicited phagocytosis above basal levels | colony counts at 1 h, AR-PCC plus anti-DNP antibody ([3]; murine BMDMs): 85,000 CFU

cy(TTFFF): additional MrkA ligand with lower affinity ([Lys(N3)]TTFFFX; bridge 1-7; not fully specified (residue 7, bridges); printed as cy(TTFFF))
affinities to MrkA (likely) [2]: ~1 µM | binding / affinity to full-length MrkA protein (ELISA signal) [2]: lower affinities to MrkA

cy(YRHLG): additional MrkA ligand with lower affinity (XYRHLG[Lys(N3)]; bridge 1-7; not fully specified (residue 1, bridges); printed as cy(YRHLG))
affinities to MrkA (likely) [2]: ~1 µM | binding / affinity to full-length MrkA protein (ELISA signal) [2]: lower affinities to MrkA
